{
  "source": "patent US8916159B2",
  "about": "“Selenocysteine mediated hybrid antibody molecules” (The United States of America, as represented by the …, priority 2007, dated 2014)",
  "key": {"[1]": {"biological_target": "T1, folate receptor (Homo sapiens, UniProt P15328)", "T1 construct": "endogenous in cells; host or cells: SKOV-3", "T1 sequence (P15328 25-234)": "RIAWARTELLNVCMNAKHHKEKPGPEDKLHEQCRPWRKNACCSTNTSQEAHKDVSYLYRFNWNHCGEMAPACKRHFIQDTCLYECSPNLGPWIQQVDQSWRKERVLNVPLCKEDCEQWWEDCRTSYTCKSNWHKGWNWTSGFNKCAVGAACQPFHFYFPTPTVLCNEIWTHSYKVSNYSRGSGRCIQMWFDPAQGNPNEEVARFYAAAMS", "assay": "Flow cytometry binding to SKOV-3 cells expressing folate receptor", "conditions": "SKOV-3, three click reaction conditions, FIG. 17", "description": "The results are depicted in the flow cytometry plot of FIG. 17.\nThe folate was further equipped with an alkyne group using methods described in Thomas et al., Poster MEDI-409, 238th ACS National Meeting, Washington, D.C. (Aug. 16-20, 2009). Using azide-alkyne Huisgen cycloaddition (“click chemistry”) under various reaction conditions, biotin-azide was added to the resulting Fc-Sec-His/folate-alkyne. The results of three reaction conditions are also depicted in the flow cytometry plot of FIG. 17."}, "[2]": {"biological_target": "T2, integrin α4 (Homo sapiens, UniProt P05556+P13612)", "T2 construct": "endogenous in cells", "assay": "Competition with anti-integrin α4 mAb for binding to integrin α4β1-expressing lymphoma cells", "conditions": "PEG-SU-Lys-Lys-mal linker conjugate, FIG. 14", "text": "Using solid-phase synthesis techniques as described in Thomas et al., Bioorg. Medicinal Chem. Letters, 18: 5785-88 (2008), the PEG-SU-Lys-Lys-mal linker was used to couple LLP2A to Fc-Sec. A biotin reporter molecule was employed as described in Example 2 to allow detection of Fc covalent adducts by avidin pull-down experiments followed by ELISA visualization. The Fc-Sec-LLP2A conjugate was then incupated with integrin α4β1-expressing cells. The cells were washed and then treated with Cy5-labeled rabbit anti-human IgG. Under these conditions, cells only fluoresced if both the Fc and LLP2A components of the hybrid construct were present."}, "[3]": {"test_system": "Raji cells", "conditions": "0.6 μM; for complement-dependent cytotoxicity with rabbit complement: 10% rabbit complement 2 hours 37° C.", "description": "To determine whether Sec-conjugation had any effect on the cytotoxic effects of Rituximab, Raji cells were centrifuged and resuspended in 1% (v/v) FCS/PBS, and aliquots of 50 μL containing 5×10^5 cells were distributed into a V-bottom 96-well plate (Corning). After incubation with Rituximab, Rituxi-Sec-His/fluorescein, or Rituxi-Fab-Sec-His/biotin (0.6 μM) for 1 hour on ice, cells were washed twice and incubated with 10% rabbit complement of 3-4 weeks old rabbits (Pel-Freez) for 2 hours at 37° C. After the addition of 100 μg/ml propidium iodide (PI), dead cells were detected by PI accumulation using a FACScan instrument (Becton-Dickinson)."}, "[4]": {"test_system": "Raji cells", "assay": "Flow cytometry binding to Raji cells", "set-up": "species or system Human", "conditions": "for fluorescence signal on Raji cells after exposure of protein to FITC maleimide derivative: FIG. 11C", "description": "Flow cytometry assays were conducted on the resulting conjugates. Human Burkitt's lymphoma cell line Raji was purchased from ATCC. All incubations were for 1 hour on ice. […] After washing twice with 1% (v/v) FCS/PBS, the cells were incubated with a 1:25 dilution of PE-coupled streptavidin (BD Biosciences) or with FITC-coupled goat anti-human Fab polyclonal (Fab′)2 fragments (Jackson ImmunoResearch Laboratories). […] After washing twice as before, the cells were resuspended in 400 μL 1% (v/v) FCS/PBS and analyzed using a FACScan instrument (Becton-Dickinson). For the competition experiment, the cells were first incubated with the anti-CD52 monoclonal antibody CAMPATH® or Rituximab (all 0.6 μM). For detection, a 1:25 dilution of PE-coupled streptavidin (BD Biosciences) was used."}, "[5]": {"assay": "Serum levels in mice after i.v. injection, flow cytometry using Raji cells", "type": "in vivo, C57BL/6 mice", "conditions": "i.v. 100 μL of 3 mg/mL, bleeds 30 min to 96 h", "description": "The mouse study was carried out by Biocon, Inc. (Rockville, Md.) in accordance with the Guide for the Care and Use of Laboratory Animals published by the National Institutes of Health. […] Sera from retro-orbital bleeds were prepared 30 min, 24 h, 48 h, 72 h, and 96 h after injection. Sera were diluted ten-fold in 1% (v/v) FCS/PBS and analyzed by flow cytometry using Raji cells and Cy5-coupled goat anti-human F(ab′)2 polyclonal antibodies (Jackson ImmunoResearch) or PE-coupled streptavidin as described in Example 10 (FIG. 16C)."}},
  "note": "Like-named read-outs stand apart in the source and are kept apart here. Non-standard residues stand in square brackets, D forms with d. Groups on a side chain read outwards from the residue. No end group written: not given here. folate‑alkyne = folate derivative bearing an alkyne group; Sec = N[C@@H](C[SeH])C(=O)O; biotin‑azide = biotin-azide",
  "data": [
    {"substance": "Fc-Sec-His/folate-alkyne: Fc-Sec-His folate conjugate equipped with an alkyne group; biotin-azide clicked on (chain (part 1 of 2) EPKSSDKTHTCPPCP; chain (part 2 of 2) A[Sec]([folate‑alkyne-biotin‑azide])HHHHHH; not fully specified; cysteine pairing not given here; also: biotin-azide clicked on)", "values": [
      {"measurement": "folate binding after biotin-azide click onto alkyne conjugate", "setting": "[1]", "value": "retained its folate binding properties"}
    ]},
    {"substance": "Fc-Sec-LLP2A: LLP2A coupled to Fc-Sec using the PEG-SU-Lys-Lys-mal trifunctional linker with biotin reporter (chain (part 1 of 2) EPKSSDKTHTCPPCP; chain (part 2 of 2) Ala-X; not fully specified (some residues); cysteine pairing not given here; also: LLP2A coupled via PEG-SU-Lys-Lys-mal trifunctional linker with biotin reporter, site not given here)", "values": [
      {"measurement": "binding to lymphoma cells in the presence of anti-integrin α4 mAb", "setting": "[2]", "value": "diminished binding"}
    ]},
    {"substance": "Rituximab-Sec-His/fluorescein: Rituximab-Sec-His conjugated at Sec to fluorescein-5-maleimide (FITC derivative with maleimide moiety)", "values": [
      {"measurement": "complement-dependent cytotoxicity with rabbit complement", "setting": "[3]; listed as Rituxi-Sec-His/fluorescein", "value": "as potent as Rituximab"},
      {"measurement": "complement-dependent cytotoxicity with rabbit complement", "setting": "[3]; listed as Rituximab-Sec-His/FITC", "value": "equal cytotoxicity"},
      {"measurement": "fluorescence signal on Raji cells after exposure of protein to FITC maleimide derivative", "setting": "[4]", "value": "clear and homogenous signal"}
    ]},
    {"substance": "Rituximab-stop: Rituximab protein without inserted selenocysteine", "values": [
      {"measurement": "fluorescence signal on Raji cells after exposure of protein to FITC maleimide derivative", "setting": "[4]", "value": "only basal levels"}
    ]},
    {"substance": "Rituximab: commercially available CD20 antibody [reference compound]", "values": [
      {"measurement": "complement-dependent cytotoxicity with rabbit complement", "setting": "[3]", "value": "strong cytotoxic effect"},
      {"measurement": "cytotoxicity of antibody alone, without rabbit serum", "setting": "[3]; no rabbit serum, FIG. 12A", "value": "neither the antibody nor rabbit serum alone mediated complement-dependent cytotoxicity"},
      {"measurement": "binding to Raji cells", "setting": "[4]; 0.6 μM, 1 hour on ice, FIG. 11A", "value": "equal affinities"},
      {"measurement": "serum signal over the course of the experiment", "setting": "[5]", "value": "only marginal weakening"}
    ]}
  ]
}
